Results: US20220073599A1 (Hoffmann-La Roche, published 2022)
Changes are numbered by the printed parent chain.

B1: bispecific anti-VEGF-A/anti-ANG2 Fab fragment P1AD9820 (Fab, V domains shown)
VH: SEHLVESGGGLVKPGGSLRLSCATADFFEYDDMSWVRQAPGKGLEWVGSISPKGDHKYLNTKFIGRFTISRDDSKNTLYLQMNSLRAEDTAVYYCARDVGFFDWWGQGTLVTVSS
VL: AIYMHQEPSSLSASVGDRVTITCHGSYWLNSEVAWYQQKPGKAPKLLIFDGDFKVYEVPSRFSGSGSHEDYTLTISSLQPEDFATYYCQQYRYHPYTFGHGTKVEIKR
notes: Bispecific Fab with two paratopes in one VH/VL pair; also called P1AD9820 Fab
B2: bispecific anti-VEGF-A/anti-ANG2 Fab fragment P1AA8906 (Fab, V domains shown)
VH: DFQLVESGGGLVKPGGSLRLSCAASYEFEYDDMSWVRQAPGKGLEWVGSISPKGGSTYYNTKFIGRFTISRDNSKNTLYLQMNSLRAEDTAVYYCARDVGFFDMWGQGTLVTVSS
VL: B1 VL with N30S, S31N, E32Y, V33L, G51A, D52R, F53W, K54L, Y56H, E57G
notes: Bispecific Fab with two paratopes in one VH/VL pair (DutaFab); CH1 and Ckappa

Columns and labels:
human VEGFA-165 = molecular target: T1, human VEGFA-165 (human, UniProt P15692-4 27-191); assay: KinExA, VEGFA-165; set-up for VEGFA-165 not described
T1 construct: also called hVEGF-A165

human Ang2-RBD-muFc = molecular target: T2, human Ang2-RBD-muFc (human, UniProt O15123 275-496, limits assumed); assay: KinExA, human ANG2 (Ang2-RBD-muFc) by the table's title; the column's head prints VEGFA-121
T2 construct: also called Human ANG2 (KinExA); not shown: murine Fc (muFc)
T2 sequence: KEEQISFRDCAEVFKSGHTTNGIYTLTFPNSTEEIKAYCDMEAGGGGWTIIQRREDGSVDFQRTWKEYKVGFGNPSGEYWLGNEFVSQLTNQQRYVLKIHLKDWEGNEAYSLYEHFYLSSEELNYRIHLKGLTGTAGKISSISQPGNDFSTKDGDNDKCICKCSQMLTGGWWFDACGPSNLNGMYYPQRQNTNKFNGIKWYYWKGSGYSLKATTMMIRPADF
Description: All KinExA® experiments were performed at room temperature (RT) using PBS pH 7.4 with 0.01% BSA and 0.01% Tween® 20 (BioRad, #161-0781) as running buffer. […] A flow rate of 0.25 ml/min was used. A constant amount of Ang2-RBD-muFc (50 pM and in a second experiment 500 pM) was titrated with tested antibody by twofold serial dilution starting at 4 nM (concentration range 1.95 pM-4000 pM). Antigen-antibody complexes were incubated at RT for at least 8 h to allow equilibrium to be reached. Equilibrated mixtures were then drawn through a column of Anti-Ang2 antibody (MAB098) coupled beads in the KinExA® system at a volume of 750 μl for 50 pM constant Ang2 and at a volume of 188 μl for 500 pM constant Ang2 permitting unbound Ang2 to be captured by the beads without perturbing the equilibrium state of the solution. Bound Ang2 was detected using a second biotinylated anti-Ang2 antibody (BAM0981) with a concentration of 250 ng/ml and following by an injection of 250 ng/ml Streptavidin Alexa Fluor™ 647 conjugate in sample buffer. Each sample was measured in duplicates for all equilibrium experiments. The KD was obtained from non-linear regression analysis of the data using a one-site homogeneous binding model contained within the KinExA® software (Version 4.0.11) using the “standard analysis” method. […]

human VEGFA-121-His [1] = molecular target: T3, human VEGFA-121-His (human, UniProt P15692 181-395); assay: SPR, VEGF-A121-His captured by anti-His antibody, Fab injected, single cycle kinetics; marked outside of Biacore specification; exponent as printed
T3 construct: Prepared in-house; not shown: His tag
T3 sequence: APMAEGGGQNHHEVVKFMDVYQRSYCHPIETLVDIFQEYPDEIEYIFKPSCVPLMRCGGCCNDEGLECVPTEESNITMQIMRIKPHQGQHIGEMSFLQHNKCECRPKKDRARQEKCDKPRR
Description: (§1) An anti-His capturing antibody (GE Healthcare 28995056) was immobilized to a Series S Sensor Chip C1 (GE Healthcare BR100535) using standard amine coupling chemistry resulting in a surface density of approximately 600 resonance units (RU). As running and dilution buffer, HBS-P+ (10 mM HEPES, 150 mM NaCl pH 7.4, 0.05% Surfactant P20) was used. […] A dilution series of the tested antibody (3.7-300 nM, 1:3 dilution) was successively injected for 60 s each, dissociation was monitored for 3600 s at a flow rate of 30 μl/min (single cycle kinetics). The surface was regenerated by injecting 10 mM Glycine pH 1.5 for 60 s at a flow of 5 μl/min. […] Curve fitting was performed using the 1:1 Langmuir binding model within the Biacore® evaluation software.
Binding kinetics to human VEGF-A and human ANG2 for the candidate antibodies were assessed as described above using the indicated Fab fragments (amino acid sequence as illustrated in Table 4).

human Ang2-RBD = molecular target: T4, human Ang2-RBD (human, UniProt O15123 275-496, limits assumed); assay: SPR, Fab captured by anti-Fab antibody, Ang2-RBD injected, 25 C, 1:1 fit
T4 construct: also called Human ANG2 (SPR); Angiopoietin 2-RBD
T4 sequence: T2 sequence
Description: An anti-Fab capturing antibody (GE Healthcare 28958325) was immobilized to a Series S Sensor Chip C1 (GE Healthcare BR100535) using standard amine coupling chemistry resulting in a surface density of approximately 800 resonance units (RU). As running and dilution buffer, HBS-P+ (10 mM HEPES, 150 mM NaCl pH 7.4, 0.05% Surfactant P20) was used, the temperature of measurement was 25° C. The tested antibody was captured by injecting a 50 nM solution for 60 sec at a flow of 5 μl/min. Association was measured by injection of human Ang2-RBD in various concentrations in solution for 180 sec at a flow of 30 μl/min (0.07 nM-50 nM, 1:3 dilution). The dissociation phase was monitored for up to 900 sec and triggered by switching from the sample solution to running buffer at a flow rate of 30 μl/min. The surface was regenerated by injection of 10 mM Glycine pH 2.1 for 60 s at a flow rate of 30 μl/min. Bulk refractive index differences were corrected by subtracting blank injections and by subtracting the response obtained from the reference flow cell without captured tested antibody. Curve fitting was performed using the 1:1 Langmuir binding model within the Biacore® evaluation software.

human VEGFA-121-His [2] = molecular target: T3, human VEGFA-121-His; assay: SPR, VEGF-A121-His captured by anti-His antibody, Fab injected, single cycle kinetics, 1:1 fit
Description: as §1

human VEGFA-121-His [3] = molecular target: T3, human VEGFA-121-His; assay: SPR, VEGF-A121-His captured by anti-His antibody, Fab injected, single cycle kinetics; marked outside of Biacore specification
Description: as §1

Row | Binder | Kd (human VEGFA-165) | Kd (human Ang2-RBD-muFc) | koff (human VEGFA-121-His [1]) | Kd (human Ang2-RBD) | koff (human Ang2-RBD) | kon (human Ang2-RBD) | kon (human VEGFA-121-His [2]) | Kd (human VEGFA-121-His [3]) | koff (human VEGFA-121-His [3])
1 | B1 | ~2 pM | ~2 pM | 5.82e-06 s⁻¹ | – | – | – | – | – | –
2 | B2 | – | – | – | 4550 pM | 0.032 s⁻¹ | 7.03e+06 M⁻¹ s⁻¹ | 1.66e+06 M⁻¹ s⁻¹ | 3 pM | 4.53e-06 s⁻¹
